Assay results from the RNAGym collection of RNA variant scans (doi:10.1073/pnas.2313332121).

B1: TPR t1 (parent)
chain: GACCAAUCUGCCCUCAGAGCUCGAGAACAUCUUCGGAUGCAGAGGAGGCAGGCUUCGGUGGCGCGAUAGCGCCAACGUCCUCAACCUCCAAUGCAUCCCACCACAUGAUGAUGCCUGAAGAGCCUUGGUUUUUUG

Variants of: B1
Test: polymerase ribozyme fitness, log enrichment relative to wild type (log ratio); higher = more active; in vitro selection for triplet polymerase activity
How it was run: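 A single round of triplicate in vitro selection, including frozen incubation at −7 °C, was applied to PCR-built, transcribed mutant libraries of each subunit of a heterodimeric triplet polymerase ribozyme. Illumina sequencing of input and output libraries retained genotypes with ≥10 input reads and ≥1 read per output. Fitness is the base-2 logarithm of genotype enrichment divided by wild-type enrichment, from inverse-variance-weighted replicate averages.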

Variant	polymerase ribozyme fitness (log ratio)
A84U C88A	-1.4
C11U C72G	-0.586
U9C C40G U55A C76A C88G	-4.6
C56G C98U G110A	-1.9
G17A C72U	-2.29
G44A C49U U78G C101A	-3.78
U33G G39C G110U	-6.35
G36U G44A U112A	-0.0288
U7G G65A	-4.77
A2G C3G C31G A43U G60U C94U C114G	-7.19
G60C U130C	-1.11
A46U U125A	-1.67
C70A U130A	-2.04
G120A U126A U131G	0.608
G44U G45A U54A C72G	-3.66
C76U C123A	0.138
C12U C56G	-0.12
C40A C85G C88U U129G	-3.87
U9C U112G	0.223
C64A C115U	-5.54
C79G G120A	-0.791
C56G C98A U112A C123A	-4.9
G61A A74C G120U	-2.24
G61A G113C G135A	-2.34

Variant	polymerase ribozyme fitness (log ratio)
G69C A83U U129A	-1.71
A46C C56U U78A A90G C94U A111C	0.0877
U78C C101A	-0.679
U59A C124U	1.47
A2G A5C G60A A74U C86U G135U	-1.91
C73G C123U	0.00475
U14A C82A C98G G110C	-7.59
C12G U14C G45A A68G U106A	-4.06
C70G C73U	-2.63
C62G C94U	-1.28
C12A C28U C86U C88U C101A A111C	-7.09
G52A C56A U106A	-1.08
A2G G110A C124A	-0.428
C3U G63A	-1.72
A50G C64U	0.0869
A27U G63C G71A C82G G113A U129A	-5.8
A5C U7G U54A C72U G110C	-4.62
G61A C79A C114A	-3.21
A50U G57C G60C C85G G113A	-2.27
C8A C31A	-5.54
C88A A105C	-2.46
C28U C73G G93C	-3.34
A16U G117U	-2.04
A41C C72A	-2.08

Variant	polymerase ribozyme fitness (log ratio)
C56U A95C A118C C124A U132A	-0.917
G10A G45U G113A	-1.45
G36U C79U	-1.62
C22G G47A G120U G127U	-3.88
C11U C12A U14G G36U	-4.16
C49G G63U U92C	-3.98
G45U C101A C102U	-5.42
A2G C12U A75U A111G G113A	-1.23
G61C A100U G120C G127U	-1.07
C12U C56A U92G C101G A121G	-3.35
C94A C114U	-2.56
C12U C79A	-0.645
C12U A16C C73A A83C	0.284
C99U A111G	-2.23
U7A U9C C12U G57C	0.0479
U7C G45U G110C	-5.16
A41G G61U G120C	0.573
C31G C34G C97A C102A G113A	-6.66
C15A G39A C53A U125A	-3.62
G39U G61U C73U U106A	-1.81
C40U C115A G128A	-2.68
G63U U130C	-1.84
A5U G63U G110A	-2.89
G45C C53U U78A U112C	0.64

Variant	polymerase ribozyme fitness (log ratio)
G48A C82U	-0.23
G63C U126A G128U U133A	-3.25
A6U C76U	-0.345
G60U U106G	-1.17
G45A G61U	-0.292
C49G G57U	-0.441
A29G U116G	-2.77
G47A U87C U112A	0.24
A27U A43U	-5.8
G120A G128A	-0.497
G42C U55A G63U C101U	-3.41
A16G A27C C72U C123U	-3.64
C12G C70G C85A	-3.7
G110U U125A	-0.916
C40G G60U C104A	-1.87
A6U G19U A121U	-1.67
C72U C85U C104G U112A G122U U133G	-6.97
C8U C22U C53U A100U	-5.15
G44U A50C C73U U92C	-2.12
G45C G69A U87C U130C	-2.8
A37C G45U G61C C123A	-3.45
A50C U116A U131A	-3.32
C8G U14G A43C G47U C82G U133A	-3.36
G45U C76G U112A A121U	0.648

Variant	polymerase ribozyme fitness (log ratio)
G25A	-4.68
C3U U78C A105U G120C	-1.99
A41U G58C	-1.16
A27U C70U C73G A84G C89G C114G	-6.4
U33A A37C	-4.7
G69U C115A	1
C12U A29G U92C C94A	-3.95
G110A G127A U134C	-3.29
G120U U130C	0.002
A18G C64U G69C U78G G113C	-3.05
C8U U92A G93A	-4.46
G42C G48A G63U U78C A83C G113U	-7.11
C82A G117U	-0.792
U7A U21C G71U A90G	-0.779
U125A U133C	-0.0467
C13A U109A G110C G128U	-3.64
C8A U112C A121G	2.38
C115U A118U	-1.41
G71U A83G A91C U96C G110A	-6.02
U7C G69C A90G G113C	-3.11
A2U G35U	-6.73
C56G U78A G117A	-2.04
C8G C20A A84C C124U	-0.801
A43C A46U C101G C123U	-4.18

Variant	polymerase ribozyme fitness (log ratio)
C70U G77A U81C	-1.19
G17U A43U G48U A74G	-3.04
C13G C22G C53U G60A U92C A118U	-5.33
C56U C124A	1.7
C80U U106C	-0.325
A83U G117U	-1.02
U7G C101A	-0.172
A43C G60C U131G	-3.6
U7G G63A C86G C94A G113U	-5.43
C4G C8A C80U C115A G120A U125A	-2.71
U81G C94U A121G	-2.71
G63A C97U	-1.46
G17C C62G C64U A68U U81G C114G	-6.46
C8A A108G	-1.84
A66U G71C	-3.02
G39U C123A	-0.855
C12A C64U U133G	-0.934
U33A C88G	-4.9
U9A U32C G36C	-0.0123
U38G A121C	1.24
G69U C98U C115A U130A	-1.03
C8U C104U	0.275
C88A C94A	-1.66
C11G C12U G113A A118U	-3.33

Variant	polymerase ribozyme fitness (log ratio)
C8G C13G G36A C72U U78A A111C	0.397
C56G G71A	-4.31
C12U U129A	-0.808
A43C C49A C94A C115A	-4.43
C4A G60A U78C	-2.08
G61C C98U	-2.55
C22U A27C U87G	-5.65
C49U C53U G60A G122A U133G	-1.32
A6U C56G	-0.948
G10U A18C	-2.58
C8A G51C C73U C94U U130G	-3.59
G60A C104A G113U	-5.38
C22A G45U C62U C73U	-5.77
C40A G60U A91G G135C	-4.18
G10A C53U G61C G122A G127U U129A	0.0511
A83C G135U	-0.881
C56A C115A U126C	-1.19
A18U U21C G36A C72U C114U	-4.3
A27G G63A C79U	-1.86
C49A A66G C73U	-1.61
C4G C73A A91U	-3.63
C40U G48C	-1.59
C34U G63C A100U A111C	-5.4
